From the supplement of paper PMC9112550, “Optimization of the antimicrobial peptide Bac7 by deep mutational scanning” (BMC Biology, 2022)

Each sequence was assayed on Escherichia coli TOP10 (assay: shrunken log2 fold change of peptide-encoding DNA abundance (4.5 h post-induction vs induction); higher = less antimicrobial activity (less host growth inhibition)). Details: time post-induction: 4.5 h; library: site-saturation at positions 5, 18, 19, 20.
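Further: peptides expressed intracellularly from a pBAD plasmid library in pooled LB shake-flask culture, induced with 0.3% L-arabinose, DNA abundance read by NGS, three biological replicates, DESeq2 with apeglm shrinkage.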

Sequence	shrunken log2 fold change
RRIRLRPPRLPRPRPRPQKSPRP	-0.139
RRIRDRPPRLPRPRPRPHTIPRP	-0.351
RRIRSRPPRLPRPRPRPADHPRP	-0.166
RRIRFRPPRLPRPRPRPAMGPRP	0.119
RRIRRRPPRLPRPRPRPHKQPRP	-0.00379
RRIRMRPPRLPRPRPRPWGFPRP	0.0809
RRIRFRPPRLPRPRPRPIFAPRP	0.161
RRIRGRPPRLPRPRPRPIHKPRP	-0.16
RRIRGRPPRLPRPRPRPAMPPRP	0.492
RRIRSRPPRLPRPRPRPLYWPRP	-0.154
RRIRHRPPRLPRPRPRPVLRPRP	-0.0204
RRIRERPPRLPRPRPRPKLWPRP	0.582
RRIRLRPPRLPRPRPRPSYPPRP	-0.472
RRIRTRPPRLPRPRPRPDRAPRP	-0.438
RRIRERPPRLPRPRPRPIMSPRP	-0.38
RRIRNRPPRLPRPRPRPGKWPRP	-0.0427
RRIRYRPPRLPRPRPRPGIPPRP	-0.193
RRIRDRPPRLPRPRPRPYSPPRP	0.0205
RRIRMRPPRLPRPRPRPKNSPRP	0.132
RRIRLRPPRLPRPRPRPICKPRP	-0.28
RRIRKRPPRLPRPRPRPVDVPRP	0.116
RRIRSRPPRLPRPRPRPCIYPRP	-0.847
RRIRIRPPRLPRPRPRPEDWPRP	0.0775
RRIRKRPPRLPRPRPRPLSQPRP	0.028
RRIRCRPPRLPRPRPRPREKPRP	1.12

Sequence	shrunken log2 fold change
RRIRERPPRLPRPRPRPEWDPRP	-0.105
RRIRTRPPRLPRPRPRPPTGPRP	0.158
RRIRPRPPRLPRPRPRPHYIPRP	-0.586
RRIRERPPRLPRPRPRPSGRPRP	0.226
RRIRRRPPRLPRPRPRPWEKPRP	0.0936
RRIRVRPPRLPRPRPRPWRTPRP	0.0312
RRIRKRPPRLPRPRPRPWCIPRP	-0.103
RRIRSRPPRLPRPRPRPPQCPRP	0.115
RRIRCRPPRLPRPRPRPAVSPRP	-0.345
RRIRMRPPRLPRPRPRPIQTPRP	-0.00151
RRIRSRPPRLPRPRPRPYLYPRP	-0.065
RRIRARPPRLPRPRPRPWDAPRP	0.108
RRIRGRPPRLPRPRPRPLYMPRP	0.185
RRIRRRPPRLPRPRPRPLRLPRP	0.59
RRIRWRPPRLPRPRPRPRFFPRP	0.326
RRIRQRPPRLPRPRPRPTSQPRP	-0.0461
RRIRQRPPRLPRPRPRPRDNPRP	-0.0667
RRIRYRPPRLPRPRPRPWRQPRP	-0.00152
RRIRIRPPRLPRPRPRPIWYPRP	-1.64
RRIRWRPPRLPRPRPRPCYNPRP	-0.24
RRIRPRPPRLPRPRPRPQQFPRP	-0.049
RRIRMRPPRLPRPRPRPFPHPRP	-0.0309
RRIRKRPPRLPRPRPRPYPYPRP	-0.125
RRIRFRPPRLPRPRPRPPAMPRP	0.775
RRIRLRPPRLPRPRPRPHAIPRP	-0.346

Sequence	shrunken log2 fold change
RRIRLRPPRLPRPRPRPHMKPRP	-0.024
RRIRCRPPRLPRPRPRPDYAPRP	-0.278
RRIRIRPPRLPRPRPRPHGRPRP	-0.0215
RRIRSRPPRLPRPRPRPWMWPRP	-0.0985
RRIRKRPPRLPRPRPRPSFPPRP	-0.0425
RRIRDRPPRLPRPRPRPNTVPRP	-0.364
RRIRLRPPRLPRPRPRPKSEPRP	0.0422
RRIRHRPPRLPRPRPRPCCGPRP	-0.114
RRIRPRPPRLPRPRPRPHLPPRP	-0.126
RRIRLRPPRLPRPRPRPDFQPRP	0.157
RRIRKRPPRLPRPRPRPDQWPRP	0.376
RRIRMRPPRLPRPRPRPNFEPRP	0.422
RRIRSRPPRLPRPRPRPEHIPRP	0.0843
RRIRPRPPRLPRPRPRPRHIPRP	-0.0802
RRIRLRPPRLPRPRPRPLYRPRP	-0.0861
RRIRTRPPRLPRPRPRPFRLPRP	-0.365
RRIRVRPPRLPRPRPRPAYDPRP	-0.565
RRIRCRPPRLPRPRPRPPQNPRP	0.801
RRIRKRPPRLPRPRPRPSLNPRP	-0.0764
RRIRMRPPRLPRPRPRPLWYPRP	0.205
RRIRCRPPRLPRPRPRPTSYPRP	-0.119
RRIRARPPRLPRPRPRPDMGPRP	-0.0014
RRIRERPPRLPRPRPRPENIPRP	-0.227
RRIRIRPPRLPRPRPRPWLVPRP	-0.038
RRIRFRPPRLPRPRPRPIELPRP	-0.537
